Data as given in the RNAGym collection of RNA variant scans (doi:10.1021/acssynbio.7b00057).

B1: Pistol ribozyme (parent)
chain: GGGUCGUUGUUCCAUAAUCGCGUGGAUAUGGCACGCAAGUUUCUACCGGGCACCGUAAAUGUCCGACUGGAGCCGUUCGGGCGGCUAUAAACAGACCUCAGGCCCGAAGCGUGGCGGCACCUGCCGCCGGUGGUAAAAAAGAUCGGAAGAGCACACGUCU

Variants of: B1
Experiment: aptazyme ON/OFF ratio, guanine; higher = stronger switching; co-transcriptional cleavage with and without guanine

Variant	aptazyme ON/OFF ratio
GGGUCGACCAUUAAUAAUCGCGUGGAUAUGGCACGCAAGUUUCUACCGGGCACCGUAAAUGUCCGACUGGAGCCGUUCGGGCGGCUAUAAACAGACCUCAGGCCCGAAGCGUGGCGGCACCUGCCGCCGGUGGUAAAAAAGAUCGGAAGAGCACACGUCU [U7A U8C G9C U10A C12U C13A]	1.05
GGGUCGACCAUUUAUAAUCGCGUGGAUAUGGCACGCAAGUUUCUACCGGGCACCGUAAAUGUCCGACUGGAGCCGUUCGGGCGGCUAUAAACAGACCUCAGGCCCGAAGCGUGGCGGCACCUGCCGCCGGUGGUAAAAAAGAUCGGAAGAGCACACGUCU [U7A U8C G9C U10A C12U C13U]	1.07
GGGUCGACCAUAGAUAAUCGCGUGGAUAUGGCACGCAAGUUUCUACCGGGCACCGUAAAUGUCCGACUGGAGCCGUUCGGGCGGCUAUAAACAGACCUCAGGCCCGAAGCGUGGCGGCACCUGCCGCCGGUGGUAAAAAAGAUCGGAAGAGCACACGUCU [U7A U8C G9C U10A C12A C13G]	1.08
GGGUCGACCAUAAAUAAUCGCGUGGAUAUGGCACGCAAGUUUCUACCGGGCACCGUAAAUGUCCGACUGGAGCCGUUCGGGCGGCUAUAAACAGACCUCAGGCCCGAAGCGUGGCGGCACCUGCCGCCGGUGGUAAAAAAGAUCGGAAGAGCACACGUCU [U7A U8C G9C U10A C12A C13A]	1
GGGUCGACCAUAUAUAAUCGCGUGGAUAUGGCACGCAAGUUUCUACCGGGCACCGUAAAUGUCCGACUGGAGCCGUUCGGGCGGCUAUAAACAGACCUCAGGCCCGAAGCGUGGCGGCACCUGCCGCCGGUGGUAAAAAAGAUCGGAAGAGCACACGUCU [U7A U8C G9C U10A C12A C13U]	1.09
GGGUCGACCAUCAAUAAUCGCGUGGAUAUGGCACGCAAGUUUCUACCGGGCACCGUAAAUGUCCGACUGGAGCCGUUCGGGCGGCUAUAAACAGACCUCAGGCCCGAAGCGUGGCGGCACCUGCCGCCGGUGGUAAAAAAGAUCGGAAGAGCACACGUCU [U7A U8C G9C U10A C13A]	1.09
GGGUCGACCAUCGAUAAUCGCGUGGAUAUGGCACGCAAGUUUCUACCGGGCACCGUAAAUGUCCGACUGGAGCCGUUCGGGCGGCUAUAAACAGACCUCAGGCCCGAAGCGUGGCGGCACCUGCCGCCGGUGGUAAAAAAGAUCGGAAGAGCACACGUCU [U7A U8C G9C U10A C13G]	1.07
GGGUCGACCAUCUAUAAUCGCGUGGAUAUGGCACGCAAGUUUCUACCGGGCACCGUAAAUGUCCGACUGGAGCCGUUCGGGCGGCUAUAAACAGACCUCAGGCCCGAAGCGUGGCGGCACCUGCCGCCGGUGGUAAAAAAGAUCGGAAGAGCACACGUCU [U7A U8C G9C U10A C13U]	1.06
GGGUCGACCAACCAUAAUCGCGUGGAUAUGGCACGCAAGUUUCUACCGGGCACCGUAAAUGUCCGACUGGAGCCGUUCGGGCGGCUAUAAACAGACCUCAGGCCCGAAGCGUGGCGGCACCUGCCGCCGGUGGUAAAAAAGAUCGGAAGAGCACACGUCU [U7A U8C G9C U10A U11A]	1.07
GGGUCGACCAAUAAUAAUCGCGUGGAUAUGGCACGCAAGUUUCUACCGGGCACCGUAAAUGUCCGACUGGAGCCGUUCGGGCGGCUAUAAACAGACCUCAGGCCCGAAGCGUGGCGGCACCUGCCGCCGGUGGUAAAAAAGAUCGGAAGAGCACACGUCU [U7A U8C G9C U10A U11A C12U C13A]	1.09
GGGUCGACCAAUGAUAAUCGCGUGGAUAUGGCACGCAAGUUUCUACCGGGCACCGUAAAUGUCCGACUGGAGCCGUUCGGGCGGCUAUAAACAGACCUCAGGCCCGAAGCGUGGCGGCACCUGCCGCCGGUGGUAAAAAAGAUCGGAAGAGCACACGUCU [U7A U8C G9C U10A U11A C12U C13G]	1.08
GGGUCGACCAAUUAUAAUCGCGUGGAUAUGGCACGCAAGUUUCUACCGGGCACCGUAAAUGUCCGACUGGAGCCGUUCGGGCGGCUAUAAACAGACCUCAGGCCCGAAGCGUGGCGGCACCUGCCGCCGGUGGUAAAAAAGAUCGGAAGAGCACACGUCU [U7A U8C G9C U10A U11A C12U C13U]	1.05
GGGUCGACCAAGUAUAAUCGCGUGGAUAUGGCACGCAAGUUUCUACCGGGCACCGUAAAUGUCCGACUGGAGCCGUUCGGGCGGCUAUAAACAGACCUCAGGCCCGAAGCGUGGCGGCACCUGCCGCCGGUGGUAAAAAAGAUCGGAAGAGCACACGUCU [U7A U8C G9C U10A U11A C12G C13U]	1.07
GGGUCGACCAAGAAUAAUCGCGUGGAUAUGGCACGCAAGUUUCUACCGGGCACCGUAAAUGUCCGACUGGAGCCGUUCGGGCGGCUAUAAACAGACCUCAGGCCCGAAGCGUGGCGGCACCUGCCGCCGGUGGUAAAAAAGAUCGGAAGAGCACACGUCU [U7A U8C G9C U10A U11A C12G C13A]	1.05
GGGUCGACCAAGGAUAAUCGCGUGGAUAUGGCACGCAAGUUUCUACCGGGCACCGUAAAUGUCCGACUGGAGCCGUUCGGGCGGCUAUAAACAGACCUCAGGCCCGAAGCGUGGCGGCACCUGCCGCCGGUGGUAAAAAAGAUCGGAAGAGCACACGUCU [U7A U8C G9C U10A U11A C12G C13G]	1.08
GGGUCGACCAUACAUAAUCGCGUGGAUAUGGCACGCAAGUUUCUACCGGGCACCGUAAAUGUCCGACUGGAGCCGUUCGGGCGGCUAUAAACAGACCUCAGGCCCGAAGCGUGGCGGCACCUGCCGCCGGUGGUAAAAAAGAUCGGAAGAGCACACGUCU [U7A U8C G9C U10A C12A]	1.09
GGGUCGACCAUGCAUAAUCGCGUGGAUAUGGCACGCAAGUUUCUACCGGGCACCGUAAAUGUCCGACUGGAGCCGUUCGGGCGGCUAUAAACAGACCUCAGGCCCGAAGCGUGGCGGCACCUGCCGCCGGUGGUAAAAAAGAUCGGAAGAGCACACGUCU [U7A U8C G9C U10A C12G]	1.21
GGGUCGACCAUUCAUAAUCGCGUGGAUAUGGCACGCAAGUUUCUACCGGGCACCGUAAAUGUCCGACUGGAGCCGUUCGGGCGGCUAUAAACAGACCUCAGGCCCGAAGCGUGGCGGCACCUGCCGCCGGUGGUAAAAAAGAUCGGAAGAGCACACGUCU [U7A U8C G9C U10A C12U]	1.11
